In the test the target is Angiotensin converting enzyme (rabbit lung acetone powder, Sigma; supernatant of the extract) (rabbit) (UniProt P12822). As to the kind of experiment: cell-based or functional assay.
Sequence of UniProt P12822 (P12822 34-1310 limits assumed): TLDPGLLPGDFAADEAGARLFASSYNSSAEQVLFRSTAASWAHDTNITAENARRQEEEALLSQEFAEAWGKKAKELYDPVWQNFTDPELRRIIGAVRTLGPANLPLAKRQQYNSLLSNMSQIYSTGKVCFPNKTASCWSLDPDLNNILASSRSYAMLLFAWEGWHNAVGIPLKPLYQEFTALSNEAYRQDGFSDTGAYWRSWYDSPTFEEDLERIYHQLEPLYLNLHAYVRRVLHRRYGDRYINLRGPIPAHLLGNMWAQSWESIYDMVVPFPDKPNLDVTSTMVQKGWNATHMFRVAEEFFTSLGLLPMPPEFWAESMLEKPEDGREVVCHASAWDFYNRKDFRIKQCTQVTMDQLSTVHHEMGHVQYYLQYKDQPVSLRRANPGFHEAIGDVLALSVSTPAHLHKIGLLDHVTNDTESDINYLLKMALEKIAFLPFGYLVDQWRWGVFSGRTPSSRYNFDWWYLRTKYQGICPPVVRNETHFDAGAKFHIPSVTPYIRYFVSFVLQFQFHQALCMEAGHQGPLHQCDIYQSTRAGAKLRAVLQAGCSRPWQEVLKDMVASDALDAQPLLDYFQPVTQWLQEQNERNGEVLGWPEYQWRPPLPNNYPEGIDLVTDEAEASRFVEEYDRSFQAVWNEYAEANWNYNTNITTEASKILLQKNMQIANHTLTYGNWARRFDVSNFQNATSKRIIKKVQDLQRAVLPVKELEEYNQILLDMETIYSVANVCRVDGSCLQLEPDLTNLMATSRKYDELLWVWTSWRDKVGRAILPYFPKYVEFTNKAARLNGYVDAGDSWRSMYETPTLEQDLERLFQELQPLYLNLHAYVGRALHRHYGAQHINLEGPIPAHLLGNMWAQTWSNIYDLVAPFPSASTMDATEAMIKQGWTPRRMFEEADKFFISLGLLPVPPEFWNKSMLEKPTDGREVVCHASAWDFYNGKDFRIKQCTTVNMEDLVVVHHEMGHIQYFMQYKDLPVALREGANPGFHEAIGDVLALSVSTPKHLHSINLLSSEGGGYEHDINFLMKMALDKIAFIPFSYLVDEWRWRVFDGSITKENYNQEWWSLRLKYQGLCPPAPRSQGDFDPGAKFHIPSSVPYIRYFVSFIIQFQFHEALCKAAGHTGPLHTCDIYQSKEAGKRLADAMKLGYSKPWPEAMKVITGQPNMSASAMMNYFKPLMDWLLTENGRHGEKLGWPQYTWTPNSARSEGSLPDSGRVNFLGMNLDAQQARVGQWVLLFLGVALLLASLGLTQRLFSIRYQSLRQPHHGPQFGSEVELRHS

Substance “Fraction E-1: concentrated thermolysin hydrolysate of the hot-water-extracted residue of dried bonito” yielded an IC50 (angiotensin converting enzyme inhibitory activity, Bz-Gly-His-Leu substrate, OD228 of hippuric acid) of 80 µg/mL. “Fraction E-2: membrane-concentrated fraction of E-1”: the IC50 (angiotensin converting enzyme inhibitory activity, Bz-Gly-His-Leu substrate, OD228 of hippuric acid) stood at 300 µg/mL. “Fraction E-3: membrane-penetrating fraction of E-1” had an IC50 (angiotensin converting enzyme inhibitory activity, Bz-Gly-His-Leu substrate, OD228 of hippuric acid) of 30 µg/mL.

Substance “Fraction E-4: ethanol precipitate of E-1” displayed an IC50 (angiotensin converting enzyme inhibitory activity, Bz-Gly-His-Leu substrate, OD228 of hippuric acid) of 200 µg/mL. “Fraction E-5: ethanol-soluble fraction of E-1” registered an IC50 (angiotensin converting enzyme inhibitory activity, Bz-Gly-His-Leu substrate, OD228 of hippuric acid) of 40 µg/mL. Take “Fraction E-6: concentrated thermolysin hydrolysate of homogenized dried bonito”: the IC50 (angiotensin converting enzyme inhibitory activity, Bz-Gly-His-Leu substrate, OD228 of hippuric acid) was 110 µg/mL.

“Fraction E-7: membrane-concentrated fraction of E-6” registered an IC50 (angiotensin converting enzyme inhibitory activity, Bz-Gly-His-Leu substrate, OD228 of hippuric acid) of 310 µg/mL.

In turn, “Fraction E-8: membrane-penetrating fraction of E-6” gave an IC50 (angiotensin converting enzyme inhibitory activity, Bz-Gly-His-Leu substrate, OD228 of hippuric acid) of 35 µg/mL. As to “Fraction E-9: ethanol precipitate of E-6”, the IC50 (angiotensin converting enzyme inhibitory activity, Bz-Gly-His-Leu substrate, OD228 of hippuric acid) was 200 µg/mL. For the substance “Fraction E-10: ethanol-soluble fraction of E-6”, the IC50 (angiotensin converting enzyme inhibitory activity, Bz-Gly-His-Leu substrate, OD228 of hippuric acid) came out at 50 µg/mL.
